# Measurements published in article PMC11079029 (2024).
# Biological target: PRPF40A WW12 (tandem WW domains, residues 141-236) (human, UniProt O75400 141-236)
# Test: ITC
# Sequence of PRPF40A WW12 (tandem WW domains, residues 141-236) (O75400 141-236): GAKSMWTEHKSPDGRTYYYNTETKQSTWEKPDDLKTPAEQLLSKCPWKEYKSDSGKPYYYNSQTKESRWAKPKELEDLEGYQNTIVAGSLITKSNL
row,Binder,Kd [µM]
1,GAMSGSPPPPPPPPPPSGSN [GB1-polyproline peptide P10],28.6
2,GAMSGSPPPPPPPPPPPPPPPPSGSN [GB1-tagged polyproline peptide P16],3.35
